Measured values taken from US20240058465A1 (SUTRO BIOPHARMA, published 2024).
Numbering of substitutions follows the chain as printed. Blank lines part the entries; values can stand above or below the binder they belong to.

What was measured:
[1] = biological target: T1, human ROR1 (hROR1) expressed on cells (human, UniProt Q01973 30-937); assay: cell-based or functional assay
[2] = biological target: T1, human ROR1 (hROR1) expressed on cells; assay: flow cytometry, HCT116-hROR1 cells
[3] = biological target: T2, human ROR1-ECD (human, UniProt Q01973 30-406); assay: SPR (Biacore), antibody captured by anti-Fc, human ROR1-ECD analyte
T2 construct: Bought protein; also called hROR1; ROR1-extracellular domain
Method: Anti-Fc polyclonal antibodies were immobilized onto a CMS chip (GE Life Sciences) using amine coupling chemistry (from Amine Coupling Kit, GE Life Sciences). The immobilization steps were carried out at a flow rate of 25 μL/min in 1×HBS-EP+buffer (GE Life Sciences; 10× Stock diluted before use). The sensor surfaces were activated for 7 min with a mixture of NHS (0.05 M) and EDC (0.2 M). The Anti-Fc antibodies were injected over all 4 flow cells at a concentration of 25 ug/ml in 10 mM sodium acetate, pH 4.5, for 7 min. Ethanolamine (1 M, pH 8.5) was injected for 7 min to block any remaining activated groups.
Off-rate and kinetic binding experiments were performed at 25° C. using 1×HBS-EP+buffer. Test and control antibodies were injected over the anti-Fc surface at concentrations of 5-10 μg/mL for 12 seconds at a flow rate of 10 μL/min on flow cells 2, 3 and 4, followed by a buffer wash for 30 seconds at the same flow rate. […] After capturing ligand (antibody) on the anti-Fc surface, the analyte (hROR1, Fz or Kr domains, Acro Biosystems, Delaware) was bound for 180 seconds, followed by a 600 second dissociation phase at a flow rate of 50 μL/min. Between each ligand capture and analyte binding cycle, regeneration was carried out using 2 injections of 10 mM Glycine pH 2.0 for 30 seconds at 30 μL/min, followed by a 30 second buffer wash step.

B2: SRP2188-C02 (antibody, IgG1, V domains shown)
VH: EVQLVESGGGLVQPGGSLRLSCAASGFNIERYDIHWVRQAPGKGLEWVGWINPDDGDTYYADSVKGRFTISADTSKNTAYLQTKSLRAEDTAVYYCARDYGVFDYWGQGTLVTVSS
VL: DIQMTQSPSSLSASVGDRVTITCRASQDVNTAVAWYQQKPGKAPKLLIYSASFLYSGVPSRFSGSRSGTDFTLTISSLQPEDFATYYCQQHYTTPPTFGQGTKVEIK
notes: IgG1 with trastuzumab LC; HIS- and FLAG-tagged; cell-free expressed
Mino Nb-PBD, drug-conjugated 2° antibody Cell Killing IC50 [1]: 0.01 nM
Mino Nb-PBD, drug-conjugated 2° antibody Cell Killing Span [1]: 73%
Bmax (MFI) [2]: 9920 MFI
Kd [2]: 0.13 nM

B5: SRP2188-D07 (antibody, IgG1, V domains shown)
VH: EVQLVESGGGLVQPGGSLRLSCAASGFNISDFDIHWVRQAPGKGLEWVVGIDPTDGATDYADSVKGRFTISADTSKNTAYLQMNSLRAEDTAVYYCARDYGVFDYWGQGTLVTVSS
VL: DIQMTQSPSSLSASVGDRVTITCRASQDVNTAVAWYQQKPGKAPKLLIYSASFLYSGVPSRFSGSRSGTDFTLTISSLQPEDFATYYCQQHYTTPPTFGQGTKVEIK
notes: as for B2
Mino Nb-PBD, drug-conjugated 2° antibody Cell Killing IC50 [1]: 0.0017 nM
Mino Nb-PBD, drug-conjugated 2° antibody Cell Killing Span [1]: 70%
Bmax (MFI) [2]: 8990 MFI
Kd [2]: 0.04 nM

B6: SRP2188-E02 (antibody, IgG1, V domains shown)
VH: B5 VH with S30P, F32Y, D33E, V49G, D52E, T54H, A57S, F103Y
VL: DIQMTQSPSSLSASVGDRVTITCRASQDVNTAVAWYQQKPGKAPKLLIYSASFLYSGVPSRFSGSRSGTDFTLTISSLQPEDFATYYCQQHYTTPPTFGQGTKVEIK
notes: as for B2
Mino Nb-PBD, drug-conjugated 2° antibody Cell Killing IC50 [1]: 0.00075 nM
Mino Nb-PBD, drug-conjugated 2° antibody Cell Killing Span [1]: 76%
Bmax (MFI) [2]: 10500 MFI
Kd [2]: 0.07 nM

B8: SRP2188-A08 (antibody, IgG1, V domains shown)
VH: B2 VH with E30H, R31N, Y32F, D54F, Q82R, T83M, K84N, V93A
VL: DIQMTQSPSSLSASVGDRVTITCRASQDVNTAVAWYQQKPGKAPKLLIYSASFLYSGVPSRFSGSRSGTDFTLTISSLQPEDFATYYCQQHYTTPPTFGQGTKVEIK
notes: as for B2
Mino Nb-PBD, drug-conjugated 2° antibody Cell Killing IC50 [1]: 0.02 nM
Mino Nb-PBD, drug-conjugated 2° antibody Cell Killing Span [1]: 75%
Bmax (MFI) [2]: 8130 MFI
Kd [2]: 0.18 nM

B9: SRP2188-B08 (antibody, IgG1, V domains shown)
VH: B2 VH with E30D, R31S, Y59F, T83M, K84D
VL: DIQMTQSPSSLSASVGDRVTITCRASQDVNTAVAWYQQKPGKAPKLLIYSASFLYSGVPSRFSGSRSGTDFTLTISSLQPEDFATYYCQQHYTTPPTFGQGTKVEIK
notes: as for B2
Mino Nb-PBD, drug-conjugated 2° antibody Cell Killing IC50 [1]: 0.0062 nM
Mino Nb-PBD, drug-conjugated 2° antibody Cell Killing Span [1]: 71%
Bmax (MFI) [2]: 9210 MFI
Kd [2]: 0.09 nM

B11: SRP2188-C07 (antibody, IgG1, V domains shown)
VH: B2 VH with E30V, T83M, K84N
VL: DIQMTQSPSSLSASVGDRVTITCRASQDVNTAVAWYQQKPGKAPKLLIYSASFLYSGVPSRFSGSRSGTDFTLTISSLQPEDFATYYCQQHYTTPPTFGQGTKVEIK
notes: as for B2
Mino Nb-PBD, drug-conjugated 2° antibody Cell Killing IC50 [1]: 0.00085 nM
Mino Nb-PBD, drug-conjugated 2° antibody Cell Killing Span [1]: 71%
Bmax (MFI) [2]: 9160 MFI
Kd [2]: 0.04 nM

B12: SRP2188-E10 (antibody, IgG1, V domains shown)
VH: B5 VH with S30G, V49G, T54R
VL: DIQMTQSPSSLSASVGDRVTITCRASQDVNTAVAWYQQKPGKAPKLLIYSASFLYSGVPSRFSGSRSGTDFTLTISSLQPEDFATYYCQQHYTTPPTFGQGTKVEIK
notes: as for B2
Mino Nb-PBD, drug-conjugated 2° antibody Cell Killing IC50 [1]: 0.00099 nM
Mino Nb-PBD, drug-conjugated 2° antibody Cell Killing Span [1]: 73%
Bmax (MFI) [2]: 9120 MFI
Kd [2]: 0.04 nM

B14: SRP2188-B07 (antibody, IgG1, V domains shown)
VH: B2 VH with E30H, R31S, Y32H, T69A, T83M, K84N, Q108R
VL: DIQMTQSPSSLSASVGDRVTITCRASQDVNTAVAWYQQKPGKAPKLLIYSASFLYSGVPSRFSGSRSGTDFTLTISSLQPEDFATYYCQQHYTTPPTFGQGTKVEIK
notes: as for B2
Mino Nb-PBD, drug-conjugated 2° antibody Cell Killing IC50 [1]: 0.0014 nM
Mino Nb-PBD, drug-conjugated 2° antibody Cell Killing Span [1]: 72%
Bmax (MFI) [2]: 8760 MFI
Kd [2]: 0.07 nM
Kd [3]: 0.221 nM
koff [3]: 0.000194 s⁻¹
kon [3]: 880000 M⁻¹ s⁻¹

Further lines, with some results ahead:

Bmax (MFI) [2]: 9560 MFI
Kd [2]: 0.04 nM
Kd [3]: 0.346 nM
koff [3]: 0.000334 s⁻¹
kon [3]: 965000 M⁻¹ s⁻¹
B1: SRP2188-B03 (antibody, IgG1, V domains shown)
VH: B5 VH with D31S, F32Y, V49G, G50A, T54G, F103Y
VL: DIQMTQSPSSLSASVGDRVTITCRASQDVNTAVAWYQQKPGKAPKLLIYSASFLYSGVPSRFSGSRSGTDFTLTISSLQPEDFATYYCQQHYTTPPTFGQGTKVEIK
notes: as for B2
Mino Nb-PBD, drug-conjugated 2° antibody Cell Killing IC50 [1]: 0.0017 nM
Mino Nb-PBD, drug-conjugated 2° antibody Cell Killing Span [1]: 71%

Bmax (MFI) [2]: 9110 MFI
Kd [2]: 0.04 nM
Kd [3]: 0.838 nM
koff [3]: 0.00055 s⁻¹
kon [3]: 656000 M⁻¹ s⁻¹
B3: SRP2188-D03 (antibody, IgG1, V domains shown)
VH: B5 VH with F32Y, V49G, T54H, A57S, F103Y
VL: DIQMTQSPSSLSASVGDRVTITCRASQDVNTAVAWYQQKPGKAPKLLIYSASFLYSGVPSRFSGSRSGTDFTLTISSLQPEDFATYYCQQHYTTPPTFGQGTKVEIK
notes: as for B2
Mino Nb-PBD, drug-conjugated 2° antibody Cell Killing IC50 [1]: 0.00089 nM
Mino Nb-PBD, drug-conjugated 2° antibody Cell Killing Span [1]: 72%

Bmax (MFI) [2]: 10100 MFI
Kd [2]: 0.04 nM
B4: SRP2188-F03 (antibody, IgG1, V domains shown)
VH: B5 VH with F32Y, V49S, T54D, A57S
VL: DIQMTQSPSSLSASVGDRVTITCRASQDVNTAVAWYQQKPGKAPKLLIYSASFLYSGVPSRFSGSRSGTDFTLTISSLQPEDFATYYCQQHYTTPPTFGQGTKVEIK
notes: as for B2
Mino Nb-PBD, drug-conjugated 2° antibody Cell Killing IC50 [1]: 0.0011 nM
Mino Nb-PBD, drug-conjugated 2° antibody Cell Killing Span [1]: 71%

Bmax (MFI) [2]: 8760 MFI
Kd [2]: 0.02 nM
B7: SRP2188-F09 (antibody, IgG1, V domains shown)
VH: B5 VH with G10D, S30R, F32Y, V49S, G50A, T54N, A57S
VL: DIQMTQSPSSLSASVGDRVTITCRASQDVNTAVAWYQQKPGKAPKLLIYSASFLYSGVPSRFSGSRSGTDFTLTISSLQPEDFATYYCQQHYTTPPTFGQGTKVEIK
notes: as for B2
Mino Nb-PBD, drug-conjugated 2° antibody Cell Killing IC50 [1]: 0.0018 nM
Mino Nb-PBD, drug-conjugated 2° antibody Cell Killing Span [1]: 59%

Bmax (MFI) [2]: 10000 MFI
Kd [2]: 0.03 nM
B10: SRP2188-F04 (antibody, IgG1, V domains shown)
VH: B5 VH with G10S, V49S, T54D
VL: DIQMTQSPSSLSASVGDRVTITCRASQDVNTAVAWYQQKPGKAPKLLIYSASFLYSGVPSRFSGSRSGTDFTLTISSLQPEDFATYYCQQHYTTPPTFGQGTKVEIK
notes: as for B2
Mino Nb-PBD, drug-conjugated 2° antibody Cell Killing IC50 [1]: 0.00072 nM
Mino Nb-PBD, drug-conjugated 2° antibody Cell Killing Span [1]: 71%

Bmax (MFI) [2]: 9390 MFI
Kd [2]: 0.03 nM
B13: SRP2188-A02 (antibody, IgG1, V domains shown)
VH: B2 VH with E30K, R31S, D54E, T83M, K84N, Y100F
VL: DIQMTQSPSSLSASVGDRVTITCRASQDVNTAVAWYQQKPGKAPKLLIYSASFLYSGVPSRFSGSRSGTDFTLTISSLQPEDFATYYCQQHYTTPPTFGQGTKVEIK
notes: as for B2
Mino Nb-PBD, drug-conjugated 2° antibody Cell Killing IC50 [1]: 0.0007 nM
Mino Nb-PBD, drug-conjugated 2° antibody Cell Killing Span [1]: 65%
